Changes are numbered by the printed parent chain. Names may count otherwise. Each block holds one binder with its values, some of them ahead of it.
Experiments:
[1] = biological target: T1, Ufd1/Npl4 heterodimer (wild type) (UniProt P53044 1-361; P33755 1-580); test: ATPase activity titration
T1 sequence (looked up) 1: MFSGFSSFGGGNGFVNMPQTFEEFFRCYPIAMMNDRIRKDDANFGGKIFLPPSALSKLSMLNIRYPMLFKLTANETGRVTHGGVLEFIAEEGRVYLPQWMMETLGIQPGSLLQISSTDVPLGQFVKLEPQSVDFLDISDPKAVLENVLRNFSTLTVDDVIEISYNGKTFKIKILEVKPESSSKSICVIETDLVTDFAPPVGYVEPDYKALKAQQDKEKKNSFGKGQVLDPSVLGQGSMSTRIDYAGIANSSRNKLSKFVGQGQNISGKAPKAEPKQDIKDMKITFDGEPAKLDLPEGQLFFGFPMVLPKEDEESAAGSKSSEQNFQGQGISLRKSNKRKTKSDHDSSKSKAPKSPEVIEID
T1 sequence (looked up) 2: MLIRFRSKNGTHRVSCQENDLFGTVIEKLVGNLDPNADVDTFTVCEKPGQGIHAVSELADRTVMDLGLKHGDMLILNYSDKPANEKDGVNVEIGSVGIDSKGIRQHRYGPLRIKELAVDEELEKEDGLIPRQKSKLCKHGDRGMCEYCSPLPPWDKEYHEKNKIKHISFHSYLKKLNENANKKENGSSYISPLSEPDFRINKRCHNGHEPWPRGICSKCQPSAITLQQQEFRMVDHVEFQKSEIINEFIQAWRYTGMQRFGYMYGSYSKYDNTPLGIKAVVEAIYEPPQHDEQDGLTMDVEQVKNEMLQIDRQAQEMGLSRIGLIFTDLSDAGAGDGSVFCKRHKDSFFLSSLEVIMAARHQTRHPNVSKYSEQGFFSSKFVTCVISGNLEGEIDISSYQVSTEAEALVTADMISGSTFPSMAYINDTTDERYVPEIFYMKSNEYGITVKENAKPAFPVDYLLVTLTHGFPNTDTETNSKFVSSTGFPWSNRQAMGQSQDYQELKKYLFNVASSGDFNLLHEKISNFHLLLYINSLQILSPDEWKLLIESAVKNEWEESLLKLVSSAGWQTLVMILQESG

Ufd1^L55R/Npl4 = biological target: T2, Ufd1^L55R/Npl4 (UniProt P53044 1-361; P33755 1-580, L55R); test: ATPase activity titration
T2 sequence (looked up) 1: T1 sequence (looked up) 1 with L55R
T2 sequence (looked up) 2: T1 sequence (looked up) 2

[2] = biological target: T3, Npl4 (wild type, purified without Ufd1) (UniProt P33755 1-580); test: SEC
T3 sequence (looked up): T1 sequence (looked up) 2

Kd [1]: 1000 nM | Kd (Ufd1^L55R/Npl4): 500 nM
B1: Cdc48 (enzyme, yeast, UniProt P25694 1-835, looked up)
chain: MGEEHKPLLDASGVDPREEDKTATAILRRKKKDNMLLVDDAINDDNSVIAINSNTMDKLELFRGDTVLVKGKKRKDTVLIVLIDDELEDGACRINRVVRNNLRIRLGDLVTIHPCPDIKYATRISVLPIADTIEGITGNLFDVFLKPYFVEAYRPVRKGDHFVVRGGMRQVEFKVVDVEPEEYAVVAQDTIIHWEGEPINREDEENNMNEVGYDDIGGCRKQMAQIREMVELPLRHPQLFKAIGIKPPRGVLMYGPPGTGKTLMARAVANETGAFFFLINGPEVMSKMAGESESNLRKAFEEAEKNAPAIIFIDEIDSIAPKRDKTNGEVERRVVSQLLTLMDGMKARSNVVVIAATNRPNSIDPALRRFGRFDREVDIGIPDATGRLEVLRIHTKNMKLADDVDLEALAAETHGYVGADIASLCSEAAMQQIREKMDLIDLDEDEIDAEVLDSLGVTMDNFRFALGNSNPSALRETVVESVNVTWDDVGGLDEIKEELKETVEYPVLHPDQYTKFGLSPSKGVLFYGPPGTGKTLLAKAVATEVSANFISVKGPELLSMWYGESESNIRDIFDKARAAAPTVVFLDELDSIAKARGGSLGDAGGASDRVVNQLLTEMDGMNAKKNVFVIGATNRPDQIDPAILRPGRLDQLIYVPLPDENARLSILNAQLRKTPLEPGLELTAIAKATQGFSGADLLYIVQRAAKYAIKDSIEAHRQHEAEKEVKVEGEDVEMTDEGAKAEQEPEVDPVPYITKEHFAEAMKTAKRSVSDAELRRYEAYSQQMKASRGQFSNFNFNDAPLGTTATDNANSNNSAPSGAGAAFGSNAEEDDDLYS

binding result [2]: binds
B2: Ufd1 (wild type, purified without Npl4) (natural protein, UniProt P53044 1-361, looked up)
chain: T1 sequence (looked up) 1

binding result [2]: binds
B3: Ufd1^L55R (purified without Npl4) (natural protein, UniProt P53044 1-361, looked up)
chain: T1 sequence (looked up) 1 with L55R

Source: paper PMC9992269 (Molecular cell, 2023)
